From patent US20150139990A1 (DAINIPPON SUMITOMO PHARMA, published 2015)
Residue numbers refer to the chain shown, from its start. Names may count otherwise. Values belong to the binder of their own block, whether it stands above or below them.

Columns and labels:
[1] = biological target: T1, human CD81 on CD81-expressing cells (Jurkat E6.1, human PBMC, Ramos) (human, UniProt P60033 1-236); experiment: cell-based or functional assay
T1 sequence: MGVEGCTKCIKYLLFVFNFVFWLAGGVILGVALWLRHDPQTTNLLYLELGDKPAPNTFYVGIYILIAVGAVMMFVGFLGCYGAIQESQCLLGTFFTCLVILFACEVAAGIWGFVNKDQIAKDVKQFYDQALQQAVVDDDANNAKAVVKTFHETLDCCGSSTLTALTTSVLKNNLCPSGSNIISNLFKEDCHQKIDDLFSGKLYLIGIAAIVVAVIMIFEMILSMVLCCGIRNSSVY

[2] = biological target: T2, human CD81 mutant A164V (human, UniProt P60033 1-236, limits assumed); experiment: ELISA
T2 construct: as m30; not shown: C-terminal V5 and 6xHis tags
T2 sequence: T1 sequence with A164V

[3] = biological target: T3, human CD81 mutant V169L (human, UniProt P60033 1-236, limits assumed); experiment: ELISA
T3 construct: as m30; not shown: C-terminal V5 and 6xHis tags
T3 sequence: T1 sequence with V169L

[4] = biological target: T4, human CD81 mutant D137E (human, UniProt P60033 1-236, limits assumed); experiment: ELISA
T4 construct: as m30; not shown: C-terminal V5 and 6xHis tags
T4 sequence: T1 sequence with D137E

[5] = biological target: T5, human CD81 mutant V169A (human, UniProt P60033 1-236, limits assumed); experiment: ELISA
T5 construct: as m30; not shown: C-terminal V5 and 6xHis tags
T5 sequence: T1 sequence with V169A

[6] = biological target: T6, human CD81 mutant V135A (human, UniProt P60033 1-236, limits assumed); experiment: ELISA
T6 construct: as m30; not shown: C-terminal V5 and 6xHis tags
T6 sequence: T1 sequence with V135A

[7] = biological target: T7, human CD81 mutant A164T (human, UniProt P60033 1-236, limits assumed); experiment: ELISA
T7 construct: as m30; not shown: C-terminal V5 and 6xHis tags
T7 sequence: T1 sequence with A164T

[8] = biological target: T8, human CD81 mutant D137A (human, UniProt P60033 1-236, limits assumed); experiment: ELISA
T8 construct: as m30; not shown: C-terminal V5 and 6xHis tags
T8 sequence: T1 sequence with D137A

[9] = biological target: T9, human CD81 mutant L165A (human, UniProt P60033 1-236, limits assumed); experiment: ELISA
T9 construct: as m30; not shown: C-terminal V5 and 6xHis tags
T9 sequence: T1 sequence with L165A

[10] = biological target: T10, human CD81 mutant N172A (human, UniProt P60033 1-236, limits assumed); experiment: ELISA
T10 construct: as m30; not shown: C-terminal V5 and 6xHis tags
T10 sequence: T1 sequence with N172A

[11] = biological target: T11, human CD81 mutant S168T (human, UniProt P60033 1-236, limits assumed); experiment: ELISA
T11 construct: as m30; not shown: C-terminal V5 and 6xHis tags
T11 sequence: T1 sequence with S168T

[12] = biological target: T12, human CD81 mutant I194A (human, UniProt P60033 1-236, limits assumed); experiment: ELISA
T12 construct: as m30; not shown: C-terminal V5 and 6xHis tags
T12 sequence: T1 sequence with I194A

[13] = biological target: T13, human CD81 mutant H151R (human, UniProt P60033 1-236, limits assumed); experiment: ELISA
T13 construct: as m30; also called H151B; not shown: C-terminal V5 and 6xHis tags
T13 sequence: T1 sequence with H151R

[14] = biological target: T14, human CD81 mutant V135L (human, UniProt P60033 1-236, limits assumed); experiment: ELISA
T14 construct: as m30; not shown: C-terminal V5 and 6xHis tags
T14 sequence: T1 sequence with V135L

[15] = biological target: T15, human CD81 mutant G158S (human, UniProt P60033 1-236, limits assumed); experiment: ELISA
T15 construct: as m30; not shown: C-terminal V5 and 6xHis tags
T15 sequence: T1 sequence with G158S

- Jurkat chemotaxis (% of control IgG4) at 0.001 µg/mL [1]: 104%
- Jurkat chemotaxis (% of control IgG4) at 0.01 µg/mL [1]: 93%
- Jurkat chemotaxis (% of control IgG4) at 0.1 µg/mL [1]: 15%
- Jurkat chemotaxis (% of control IgG4) at 1 µg/mL [1]: 3%
- Jurkat chemotaxis (% of control IgG4) at 10 µg/mL [1]: 3%
- relative binding affinity [5]: < 20%
- relative binding affinity [10]: < 20%
B2: 003-A10 (antibody, human IgG4 S228P, lambda, V domains shown)
VH: EVQLLESGGGLVQPGGSLRLSCAASGFTFSSNYMSWVRQAPGKGLEWVSYISSSSTYTDYADSVKGRFTISRDNSKNTLYLQMNSLRAEDTAVYYCARYSYGRDTFDYWGQGTLVTVSS
VL: QSVLTQPFSASGTPGQRVTISCTGSTSNIGAGYDTHWYQQLPGTAPKLLIYGNSNRPSGVPDRFSGSKSGTSASLAISGLRSEDEADYYCQSYDTNLSVWVFGGGTKLTVLG
notes: IgG4 S228P

- Jurkat chemotaxis (% of control IgG4) at 0.001 µg/mL [1]: 80%
- Jurkat chemotaxis (% of control IgG4) at 0.01 µg/mL [1]: 79%
- Jurkat chemotaxis (% of control IgG4) at 0.1 µg/mL [1]: 21%
- Jurkat chemotaxis (% of control IgG4) at 1 µg/mL [1]: -3%
- Jurkat chemotaxis (% of control IgG4) at 10 µg/mL [1]: -4%
- relative binding affinity [13]: < 20%
- relative binding affinity [14]: < 20%
- relative binding affinity [2]: < 20%
- relative binding affinity [3]: < 20%
- relative binding affinity [4]: < 20%
- relative binding affinity [5]: < 20%
- relative binding affinity [6]: < 20%
- relative binding affinity [7]: < 20%
- relative binding affinity [8]: < 20%
- relative binding affinity [15]: < 20%
- relative binding affinity [9]: < 20%
B4: 003-F08 (antibody, human IgG4 S228P, lambda, V domains shown)
VH: B2 VH with L45P, T58A, T105N
VL: B2 VL with F8S, V99A
notes: IgG4 S228P

More lines, now with the values behind:

B1: 002-C02 (antibody, human IgG4 S228P, lambda, V domains shown)
VH: B2 VH with T56S, S63T, R98S, T105S
VL: B2 VL with F8P, S82T
notes: IgG4 S228P
- Jurkat chemotaxis (% of control IgG4) at 0.001 µg/mL [1]: 106%
- Jurkat chemotaxis (% of control IgG4) at 0.01 µg/mL [1]: 104%
- Jurkat chemotaxis (% of control IgG4) at 0.1 µg/mL [1]: 31%
- Jurkat chemotaxis (% of control IgG4) at 1 µg/mL [1]: -5%
- Jurkat chemotaxis (% of control IgG4) at 10 µg/mL [1]: -4%
- relative binding affinity [2]: < 20%
- relative binding affinity [3]: < 20%
- relative binding affinity [4]: < 20%
- relative binding affinity [5]: < 20%
- relative binding affinity [6]: < 20%
- relative binding affinity [7]: < 20%
- relative binding affinity [8]: < 20%
- relative binding affinity [9]: < 20%

B3: 002-F01 (antibody, human IgG4 S228P, lambda, V domains shown)
VH: B2 VH with T105N
VL: B2 VL with F8P, V99A
notes: IgG4 S228P
- Jurkat chemotaxis (% of control IgG4) at 0.001 µg/mL [1]: 89%
- Jurkat chemotaxis (% of control IgG4) at 0.01 µg/mL [1]: 87%
- Jurkat chemotaxis (% of control IgG4) at 0.1 µg/mL [1]: 35%
- Jurkat chemotaxis (% of control IgG4) at 1 µg/mL [1]: 4%
- Jurkat chemotaxis (% of control IgG4) at 10 µg/mL [1]: 9%
- relative binding affinity [11]: < 20%
- relative binding affinity [2]: < 20%
- relative binding affinity [3]: < 20%
- relative binding affinity [12]: < 20%
- relative binding affinity [5]: < 20%
- relative binding affinity [6]: < 20%
- relative binding affinity [7]: < 20%
- relative binding affinity [9]: < 20%
